Data taken from IntAct's records for PubMed 20639859.

B1: Serine/threonine-protein kinase Chk1 (Homo sapiens), O14757 (parent)
chain: MAVPFVEDWDLVQTLGEGAYGEVQLAVNRVTEEAVAVKIVDMKRAVDCPENIKKEICINKMLNHENVVKFYGHRREGNIQYLFLEYCSGGELFDRIEPDIGMPEPDAQRFFHQLMAGVVYLHGIGITHRDIKPENLLLDERDNLKISDFGLATVFRYNNRERLLNKMCGTLPYVAPELLKRREFHAEPVDVWSCGIVLTAMLAGELPWDQPSDSCQEYSDWKEKKTYLNPWKKIDSAPLALLHKILVENPSARITIPDIKKDRWYNKPLKKGAKRPRVTSGGVSESPSGFSKHIQSNLDFSPVNSASSEENVKYSSSQPEPRTGLSLWDTSPSYIDKLVQGISFSQPTCPDHMLLNSQLLGTPGSSQNPWQRLVKRMTRFFTKLDADKSYQCLKETCEKLGYQWKKSCMNQVTISTTDRRNNKLIFKVNLLEMDDKILVDFRLSKGDGLEFKRHFLKIKGKLIDIVSSQKIWLPAT
partner: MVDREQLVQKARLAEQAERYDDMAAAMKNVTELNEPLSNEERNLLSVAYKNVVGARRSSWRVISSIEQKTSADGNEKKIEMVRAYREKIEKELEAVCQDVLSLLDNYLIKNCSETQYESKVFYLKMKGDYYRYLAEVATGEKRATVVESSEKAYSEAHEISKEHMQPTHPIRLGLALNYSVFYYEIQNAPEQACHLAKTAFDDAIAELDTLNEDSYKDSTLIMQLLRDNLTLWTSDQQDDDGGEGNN

Variants of: B1
Settings: with 1433g_human YWHAG

Row | Variant | effect of a mutation on the interaction
1 | MAVPFVEDWDLVQTLGEGAYGEVQLAVNRVTEEAVAVMIVDMKRAVDCPENIKKEICINKMLNHENVVKFYGHRREGNIQYLFLEYCSGGELFDRIEPDIGMPEPDAQRFFHQLMAGVVYLHGIGITHRDIKPENLLLDERDNLKISDFGLATVFRYNNRERLLNKMCGTLPYVAPELLKRREFHAEPVDVWSCGIVLTAMLAGELPWDQPSDSCQEYSDWKEKKTYLNPWKKIDSAPLALLHKILVENPSARITIPDIKKDRWYNKPLKKGAKRPRVTSGGVSESPSGFSKHIQSNLDFSPVNSASSEENVKYSSSQPEPRTGLSLWDTSPSYIDKLVQGISFSQPTCPDHMLLNSQLLGTPGSSQNPWQRLVKRMTRFFTKLDADKSYQCLKETCEKLGYQWKKSCMNQVTISTTDRRNNKLIFKVNLLEMDDKILVDFRLSKGDGLEFKRHFLKIKGKLIDIVSSQKIWLPAT [K38M] | disrupting interaction

Variants of: B1
Settings: with 1433g_human YWHAG
Remark: another data set of the same source

Row | Variant | effect of a mutation on the interaction
2 | MAVPFVEDWDLVQTLGEGAYGEVQLAVNRVTEEAVAVKIVDMKRAVDCPENIKKEICINKMLNHENVVKFYGHRREGNIQYLFLEYCSGGELFDRIEPDIGMPEPDAQRFFHQLMAGVVYLHGIGITHRDIKPENLLLDERDNLKISDFGLATVFRYNNRERLLNKMCGTLPYVAPELLKRREFHAEPVDVWSCGIVLTAMLAGELPWDQPSDSCQEYSDWKEKKTYLNPWKKIDSAPLALLHKILVENPSARITIPDIKKDRWYNKPLKKGAKRPRVTSGGVSESPSGFSKHIQANLDFSPVNSASSEENVKYSSSQPEPRTGLSLWDTSPSYIDKLVQGISFSQPTCPDHMLLNSQLLGTPGSSQNPWQRLVKRMTRFFTKLDADKSYQCLKETCEKLGYQWKKSCMNQVTISTTDRRNNKLIFKVNLLEMDDKILVDFRLSKGDGLEFKRHFLKIKGKLIDIVSSQKIWLPAT [S296A] | disrupting interaction
